Data from PMC10720262 (2023).

target: PfCSP full length (Plasmodium falciparum (isolate NF54), UniProt P19597); assay: ELISA AUC
Sequence (P19597 20-375): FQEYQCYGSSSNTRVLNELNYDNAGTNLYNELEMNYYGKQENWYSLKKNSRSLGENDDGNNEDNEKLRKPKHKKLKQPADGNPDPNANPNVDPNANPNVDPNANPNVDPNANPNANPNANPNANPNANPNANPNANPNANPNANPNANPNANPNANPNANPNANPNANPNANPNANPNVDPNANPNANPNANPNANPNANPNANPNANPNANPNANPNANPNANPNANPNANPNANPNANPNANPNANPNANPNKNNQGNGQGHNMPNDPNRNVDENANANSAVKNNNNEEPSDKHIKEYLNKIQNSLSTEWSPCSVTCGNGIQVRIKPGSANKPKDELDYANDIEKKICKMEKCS

Row | Binder | binding score
1 | CL-437862 (antibody, V domains shown, peptides N-terminally acetylated and C-terminally amidated) VH: QVQLVESGGGVVQPGRSLRLSCAASGFTFSNSGMHWVRQVPGKGLEWVAIIWYDGGNKYYADSVKGRFTISRDNSKNTLYLQMNSLRAEDTAVYYCARAYYDILTSYDKDCCYGMDVWGQGTTVTVSS VL: not shown | 2.4
2 | CL-512469 (antibody, V domains shown, peptides N-terminally acetylated and C-terminally amidated) VH: QMQLVESGGGVVQPGRSLTLSCEASGFTFSNYGMHWVRQAPGKGLEWVAIIWFDGSHRFYADAVEGRFTISRDNSKNTLFLQMTSLRAEDAAVYYCARVGQFSSSSWGAFDIWGQGTVVTVSS VL: EIVLTQSPGTLSLSPGESVTLSCRASQIISNTHLAWYQQKPGQAPSLLIYGASSRATGIPDRFSGSGSGTDFTLTISRLEPEDFAVYYCQQYGRLWTFGQGTKVEIK | 1.99
3 | CL-511771 (antibody, V domains shown, peptides N-terminally acetylated and C-terminally amidated) VH: QVQLVESGGGVVQPGRSLRLSCAASGFTFSNSGMHWVRQAPGKGLEWVAIIWYDGSNKYYAESMKGRFTISRDNSKNTLYLQMNSLRAEDTAVYYCARDGTTNAFDLWGQGTMVTVSP VL: not shown | 2.64
4 | CL-513701 (antibody, V domains shown, peptides N-terminally acetylated and C-terminally amidated) VH: QVQLVESGGGVVQTGRSLRLSCTASGFIFSNYGMYWVRQAPGKGLEWVALIWYDGSNKYYVDSVKGRFTISRDNSKNTLYLQMNSLRAEDTAVYYCARAGKYSGSGSYLDSWGQGTLVTVSS VL: DIQMTQSPSSVSASVGDRVTITCRASQGISSWLAWYQQKPGKAPKLLIYTASSLQSGVPSRFSGSGSGTDFTLTISSLQPDDFATYFCQQYSRYWTFGQGTKVEIK | 2.54
5 | CL-444639 (antibody, V domains shown, peptides N-terminally acetylated and C-terminally amidated) VH: QVQLVESGGGVVQPARSLRLSCAASGFTFSSYGMHWVRQAPGKGLEWVAVIWYDGSNKYYADSVKGRFTISRDNSKNTLYLQMNSLRAEDTAVYYCAKVGDFYGSGSYPHYYGMDVWGQGTTVTVSS VL: not shown | 2.4
6 | CL-440582 (antibody, V domains shown, peptides N-terminally acetylated and C-terminally amidated) VH: QVQLVESGGGVVQPGRSLRLSCAASGFTLNNYGIHWVRQAPGKGLEWLSLIWYDGSNKFYADSVKGRFTVSRDNSQNTVSLHMSSLSVDDTAVYYCARPGIGVPGDKYTMDVWGQGTTVTVSS VL: DIQMTQSPSTLSASVGDRVTITCRASQTISAWLAWYQQKLGKAPKILIYKASILESGVPSRFSGSGSGTEFTLTINSLQPDDFATYYCQQYNYDWTFGQGTKVEIN | 2.6
7 | CL-510596 (antibody, V domains shown, peptides N-terminally acetylated and C-terminally amidated) VH: QVQLEESGGGVVQPGRSLRLSCTATGFTFSNYGMHWVRQAPGKGLEWVAVIWYDGSNKYYVDSVKGRFTISRDNSKNTLYLQMNSLRAEDTAVYYCARDGGYYGSGSYWWFDSWGQGTLVTVSS VL: not shown | 1.64
8 | CL-512206 (antibody, V domains shown, peptides N-terminally acetylated and C-terminally amidated) VH: QVQLVESGGGVVQPGRSLRLSCAASGFTFSHYGMHWVRQAPGKGLEWVAVIWYDGNNKFYADSVKGRFTISRDNSNNTLYLQMNSLRAEDTAVYHCVRERTGATSRGFDFWGQGTLVTVSS VL: QSVLTQPPSVSAAPGQKVTISCSGSDSNIEKYYVSWYQQLPGSAPKLLIYDNNKRPSGIPDRFSGSKSGTSATLGITGLQTGDEAVYYCGTWDSSLSTGVFGGGTKLTVL | 1.86
9 | CL-509370 (antibody, V domains shown, peptides N-terminally acetylated and C-terminally amidated) VH: QVQLVESGGGVVQPGRSLRLSCAASGFTFSSYGMHWVRQAPGKGLEWVAVIWYDGSNKFYADSVKGHFTISRDNSKNTLYLQMNSLRAEDTAVYYCARDGRDLRGTGPYFDPWGQGTLVTVSS VL: EIVMTQSPATLSVSPGERAILSCRASQSVSSNLAWYQQKPGQAPRLLIYGASIRATGIPARFRGSGSGTEFTLTISILQSEDFAVYYCQQYNNWITFGQGTRLEIK | 2.09
10 | CL-510514 (antibody, V domains shown, peptides N-terminally acetylated and C-terminally amidated) VH: QVQLVESGGGVVQPGRSLRLSCTTSGFTFSNFGMHWVRQAPGKGLEWVALIWYDGSNKYYADSVKGRFTISRDNSKNTLYLQMNGLRAEDTAVYYCARDGGYYYGSGGAFDIWGQGTMVTVSS VL: not shown | 2.12
11 | CL-531325 (antibody, V domains shown, peptides N-terminally acetylated and C-terminally amidated) VH: QVHLVESGGGVVQPGKSLRLSCAASGFTFSNFGMHWVRQAPGKGLEWVALIWYDGSHKFYADSVQGRFTISRDNSKNTLFLQMNSLRAEDTAIYYCAKVISYGSVNYYNNYKYTMDVWGQGTTVTVSS VL: not shown | 2.55
12 | CL-513041 (antibody, V domains shown, peptides N-terminally acetylated and C-terminally amidated) VH: QEHLVESGGGVVQPGRSLRLSCAASGFTFSNSGMHWVRQAPGKGLEWVAVIWYDGSNKFYADSVRGRFTISRDNSNNTLYLQMNSLRAEDTALYYCARDRLFSGSWNWFDPWGQGTLVTVSS VL: EIVLTQSPATLSLSPGERATLSCRASQSVSTYLAWYQQKPGQAPRLLIYDASNRATGIPARFSGSGSGTDFTLTISSLEPEDFAVYYCQQRSNWFTFGGGTKVEIK | 2.13
13 | CL-512564 (antibody, V domains shown, peptides N-terminally acetylated and C-terminally amidated) VH: QVQLVESGGGVVQPGRSLRLSCAASGFTFSNSGMHWVRQAPGKGLEWVAIIWYDGSHKFYADSVKGRFTISRDNSKNTLYLQMNSLRIEDTAMYYCVRSYNWNYPVRGDYKYGMDVWGQGTTVTVSS VL: DIQMTQSPSTLSASVGDRVTITCRASQSISSWLAWFQQKPGKAPNLLIYMASSLQSGVPSRFSGSGSGTEFTLTISSLQPDDFATYYCQQFNTYWTFGQGTKVEIK | 2.14
14 | CL-531969 (antibody, V domains shown, peptides N-terminally acetylated and C-terminally amidated) VH: QVQLVESGGGVVQPGRSLRLSCAASGFTFSSSGMHWVRQAPGMGLEWVAIIWYDGSNKFYADSVKGRFTISRDNSKNTLYLQMNSLRAEDTAVYYCARAYVSGNYGDNYGMDVWGQGTTVTVSS VL: DIQMTQSPSTLSASVGDRVTITCRASQSISSWLAWFQQKPGKAPKLLIYKASSLESGVPSRFSGSGSGTEFTLTINSLQPDDFATYFCQQYNYYWTFGQGTKVEIK | 2.5
15 | CL-459404 (antibody, V domains shown, peptides N-terminally acetylated and C-terminally amidated) VH: QVQLVASGGGVVQPGRSLRLSCAASGFTFSNYGMHWVRQAPGKGLEWVAIIWYDGSKKYYSDSVKGRFTISRDNSKNTLNLQMNSLRAEDTAVYYCARAYGSGSYSDDYYGMDVWGQGTTVTVSS VL: DIQMTQSPSTLSASVGDRVTITCRASQSISPWLAWFQQKPGKAPKLLIYKASNLESGVPSRFSGSGSGTEFTLTISSLQPDDFATYYCQQYYTYWTFGQGTKVEIK | 2.4
16 | CL-513462 (antibody, V domains shown, peptides N-terminally acetylated and C-terminally amidated) VH: QVQLVESGGGVVQPGRSLRVSCAASGFTFSNYGMYWVRQAPGKGLEWVAVIWHDGTNKFYEDSVKGRFTISRDNSKNTLYLQMNSLRAEDTAVYYCARAGYFQGSGSFLDYWGQGTLVTVSS VL: DIQMTQSPSTLSASVGDRVTITCRASQSISSWLAWYQQKPGKAPKLLIYKASSLESGVPSRFSGSGSGTEFTLTISSLQPDDFATYFCQQYSSYWTFGQGTKVEIK | 2.47
17 | CL-532061 (antibody, V domains shown, peptides N-terminally acetylated and C-terminally amidated) VH: QVQLVESGGGVVQPGRSLRLSCVASRFTFSNYGMHWVRQTPGKGLEWVAIIWYDGSNKFYGDSVKGRFTISRDNSRNTLYLQMNNLRAEDTAVYYCARAYDDFVDHDKYGMDVWGQGTTVTVSS VL: DIQMTQSPSTLSASVGDRVTISCRASQSISIWLAWYQQKSGKAPKLLIYKASRLESGVPSRFSGSGSGTEFTLTISSLQPDDFATYYCQQYNSYWTFGQGTKVEIK | 2.47
18 | CL-512761 (antibody, V domains shown, peptides N-terminally acetylated and C-terminally amidated) VH: QVQLVESGGGVVQPGTSLRLSCAASGFTFSNYGMHWVRQAPGKGLEWVSITWYDESNKFYADSVKGRFTISRDNSKNTLYLQMNSLRAEDTAVYYCARAYDTLTGYRAQKYGMDVWGQGTTVTVSS VL: DIQMTQSPSTLSASVGDRVTITCRASQRISTWLAWYQQKPGKAPKLLINEASRLESGVPSRFSGSGSGTEFTLTISSLQPDDFATYYCQQYNSYWTFGQGTKVEIK | 2.17
19 | CL-531912 (antibody, V domains shown, peptides N-terminally acetylated and C-terminally amidated) VH: LVQLVESGGGVVQPGRSLRLSCAASGFTFSSSGMHWVRQAPGKGLEWVAIIWYDGSNKFYADSVKGRFTISRDNSKNTLYLQMNSLRAEDTAVYYCARAYVSGSHGDKYGMDVWGQGTTVTVSS VL: DIQMTQSPSTLSASVGDRVTITCRASQSISSWLAWFQQKPGKAPKLLIYKASSLESGVPSRFSGSGSGTEFTLTINSLQPDDFATYFCQQYNNYWTFGQGTKVEIK | 2.64
20 | CL-510499 (antibody, V domains shown, peptides N-terminally acetylated and C-terminally amidated) VH: QVQLVESGGGLVQPGRSLTLSCAASGFTFSNYGMHWVRQTPGKGLEWVALIRYDGSYKFYADSVKGRFTISRDNSKNTLYLQMNSLRAEDTAIYFCARDGDYSNSAGDFDYWGQGTLVTVSS VL: EIVLTQSPGTLSLSPGERATLSCRASQSVSSTNLAWYQQKPGQAPRLLIYGVSSRATGIPDRFSGSGSGTDFTLTINRLEPEDFAVYYCQQHGRSFTFGPGTKVEIK | 2.06
21 | CL-513808 (antibody, V domains shown, peptides N-terminally acetylated and C-terminally amidated) VH: QVQLVESGGGVVQPGRSLRLSCAASGFTFSNYGMHWVRQAPGKGLEWVAIIWYDGSNKFYADSVKGRFTISRDNSKNTLYLQMNSLRAEDTAVYYCARDDRGHSYGPYFDFWGQGTLVTVSS VL: EIVMTQSPATLSVSPGERATLSCRASQSVSSNLAWYQQKPGQAPRLLIYGASIRATGIPARFSGSGSGTEFTLTISILQSEDFAVYYCQQCNNWPWTFGQGTKVEIK | 2.17
22 | CL-512296 (antibody, V domains shown, peptides N-terminally acetylated and C-terminally amidated) VH: QVQLVESGGGVVQPGRSLRLSCAASGFTFSNYGMHWVRQAPGKGLEWVAVIWYDGSKKFYADSVMGRFTISRDNSKNTLVLQMNSLGAEDTAVYYCARDRGYSGYVFDYWGQGTLVTVSS VL: QSALTQPASVSGSPGQSIAISCTGTSSDVGGYNFVSWYRHHPGKAPKLMIYDVSNRPSGVSNRFSGSKSGNTASLTISGLQAEDEADYYCCSYAGSCSVFGGGTKLTVL | 1.86
23 | CL-445635 (antibody, V domains shown, peptides N-terminally acetylated and C-terminally amidated) VH: QVQLVESGGAVVQPGTSLRLSCAASGFTFSNYGMHWVRQAPGKGLQWVALIWYNGNNKFYAESVEGRFIISRDNSKNILFLQMNSLSAEDTAVYYCARAFYYDSGNYLDYWGPGSLVTVSS VL: DIQMTQSPSSVSASVGDRVTITCRARQDISSRLAWYQQKPGKAPKILIYGASSLQSGVPSRFSASGSGTDFTLTISSLQPEDFATYYCQQANSFPWTFGQGTKVEIK | 2.4
24 | CL-531237 (antibody, V domains shown, peptides N-terminally acetylated and C-terminally amidated) VH: QVQLVESGGGVVQPGTSLRLSCVASGFTFSNFGIHWFRQAPGKGLEWVSLIWYDGKNKFYAESVTGRFTISRDNSKNTVYLQMSSLRAEDTAVYYCARSYYYDSGNYFDYWGQGTLVTVSS VL: DIQMTQSPSSVSASVGDRITITCRASQGISSRLAWFQQKPGKAPNFLIYGTSSLQSGVPSRFSGSGSGTDFTLTISSLQPEDSATYYCQQANSYPWTFGQGTKVEIK | 2.18
